Values quoted from earlier work in publication PMC12692374.

Target: HIV-1 capsid (Human immunodeficiency virus 1) (UniProt O93182)
Sequence (O93182 133-363): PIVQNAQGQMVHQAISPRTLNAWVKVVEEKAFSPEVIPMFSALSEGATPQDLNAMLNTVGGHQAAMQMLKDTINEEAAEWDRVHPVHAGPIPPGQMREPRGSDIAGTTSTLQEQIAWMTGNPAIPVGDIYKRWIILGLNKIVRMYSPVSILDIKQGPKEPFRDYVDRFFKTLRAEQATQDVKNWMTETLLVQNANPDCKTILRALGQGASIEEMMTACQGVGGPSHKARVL

Chain of NONO (Q15233 whole entry): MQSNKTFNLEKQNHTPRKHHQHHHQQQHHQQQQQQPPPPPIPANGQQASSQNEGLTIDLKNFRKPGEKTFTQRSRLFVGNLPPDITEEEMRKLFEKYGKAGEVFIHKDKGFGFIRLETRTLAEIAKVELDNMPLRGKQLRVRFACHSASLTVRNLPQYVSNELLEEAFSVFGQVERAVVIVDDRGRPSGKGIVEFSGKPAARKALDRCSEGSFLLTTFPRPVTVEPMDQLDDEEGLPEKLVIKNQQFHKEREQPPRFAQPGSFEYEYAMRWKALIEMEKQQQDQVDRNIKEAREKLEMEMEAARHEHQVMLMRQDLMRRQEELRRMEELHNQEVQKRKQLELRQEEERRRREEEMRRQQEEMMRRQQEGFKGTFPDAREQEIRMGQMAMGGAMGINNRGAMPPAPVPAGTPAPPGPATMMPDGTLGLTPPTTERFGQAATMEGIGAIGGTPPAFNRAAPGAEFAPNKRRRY

NONO (from UniProt Q15233)
Kd: 9.15 µM
